Results on 1 protein are retold here after patent publication US20180112202A1 (ACE BIOSCIENCES A S, published 2018).

This data set concerns the molecule itself. In words: Native PAGE, self-association; the cell continues below as 'dimer ~7 forms visible from monomer to multimer'. An excerpt:
Native PAGE was run for information of rhGALC formations at neutral pH. […] Final product TG1106 was compared to rhGALC in-house standard StG03 and the pattern was similar. It could be that the lowest band (apparent MW 80-100 kDa) is rhGALC monomer and the second band is rhGALC dimer, followed by formations adding on more rhGALC monomers and/or dimers. Up to seven forms of rhGALC were visualized on the gel. rhGALC dimer was the most pronounced independent on load. An earlier electron microscopy study has verified that several forms exist of which the major form has a diameter of ˜20 nm, which could correspond to rhGALC dimer.

B1: recombinant human Galactocerebroside beta-Galactosidase (rhGALC), full length 80 kDa form (enzyme)
chain: YVLDDSDGLGREFDGIGAVSGGGATSRLLVNYPEPYRSQILDYLFKPNFGASLHILKVEIGGDGQTTDGTEPSHMHYALDENYFRGYEWWLMKEAKKRNPNITLIGLPWSFPGWLGKGFDWPYVNLQLTAYYVVTWIVGAKRYHDLDIDYIGIWNERSYNANYIKILRKMLNYQGLQRVKIIASDNLWESISASMLLDAELFKVVDVIGAHYPGTHSAKDAKLTGKKLWSSEDFSTLNSDMGAGCWGRILNQNYINGYMTSTIAWNLVASYYEQLPYGRCGLMTAQEPWSGHYVVESPVWVSAHTTQFTQPGWYYLKTVGHLEKGGSYVALTDGLGNLTIIIETMSHKHSKCIRPFLPYFNVSQQFATFVLKGSFSEIPELQVWYTKLGKTSERFLFKQLDSLWLLDSDGSFTLSLHEDELFTLTTLTTGRKGSYPLPPKSQPFPSTYKDDFNVDYPFFSEAPNFADQTGVFEYFTNIEDPGEHHFTLRQVLNQRPITWAADASNTISIIGDYNWTNLTIKCDVYIETPDTGGVFIAGRVNKGGILIRSARGIFFWIFANGSYRVTGDLAGWIIYALGRVEVTAKKWYTLTLTIKGHFASGMLNDKSLWTDIPVNFPKNGWAAIGTHSFEFAQFDNFLVEATR
modifications: glycosylated (about 7% carbohydrate w:w, 2-3 mol mannose-6-phosphate per mol), sites not stated
notes: Expressed in CHO cells and purified from harvest; P45803 looks like a misprint; also called Galactocerebrosidase; Galactosylceramidase
Turning to B1, the binding result is reported as “binds”.
